US10344295B2, “Methods and compositions for providing resistance to glufosinate” (priority 2014, dated 2019)

B1: SEQ ID NO:1: glufosinate resistance protein from Pseudomonas sp. strain APG00318, encoded by SEQ ID NO: 2 (protein)
chain: MSKTTVRIAQVSDAQAIQAIYAPMVESTTISFELEPPSVEEMAMRIESTLLTYPYLVAVRDGQVIGYAYASQHRAREAYRWSVDVTVYISPEAHRSGVGRALYDVLLPTLKKQGFHAAYAGIALPNDGSVGLHEALGFAHIGTYPEVGFKHGAWRDVGYWRIALDSTNPPKLPVLFSEISLF
modifications: Pseudomonas sp. strain APG00318
B2: SEQ ID NO: 7: glufosinate resistance protein from Flavobacterium sp. strain APG00135, encoded by SEQ ID NO: 8 (protein)
chain: MSVILRPATVNDLEKILEIVNHSILHTTANYSYDIQTIEVQTKWFEDKKAKNLPIVVADLDGEVVGFGSYGQFREKIGYQYTVEHSVYVVDNVIGKGIGSKLLTELIRLAKEQGYHVMIGAIDADNAGSITFHEKFGFVATGTIREVGYKFDHWLDLVFMQLILK
modifications: Flavobacterium sp. strain APG00135
B3: SEQ ID NO: 9: glufosinate resistance protein from Serratia sp. strain APG00119, encoded by SEQ ID NO: 10 (protein)
chain: MTTLSAPVLSLLDATPDDMAAVLRIYTQHVLYGAASFEEQPPTLAEMQLRLSKVREAGLPWLVAKSAGVIVGYCYATPYRPRPAYRFTVEDSVYIAEGQQGKGIGRALLSALIARCEQGPWRQMLAIVGDSAANRGSLALHQSLGFTSAGTLKAVGFKLGEWRDTQIMQRALGAGGNRHP
modifications: Serratia sp. strain APG00119

Tests used:
[1] = tested on: TOP10 E. coli cells; assay: minimum inhibitory concentration experiment: growth of E. coli in liquid media with glufosinate; type: cell-based
Procedure: FIG. 1 provides a minimal inhibitory concentration experiment. A polynucleotide encoding SEQ ID NO: 1 was transformed into E. coli cells for protein expression with an N-terminal maltose binding protein. The resulting E. coli clone was analyzed for the ability to grow in the presence of glufosinate.
Predicted ORFs (open reading frames) and protein products from genome sequences of several bacterial isolates were identified. A predicted protein was found with 43.53% identity to the phosphinothricin acetyltransferase (PAT) gene. This gene coding for a new GluR (glufosinate resistance) protein was cloned from that strain and is referred to herein as GluRAP1 and set forth in SEQ ID NO:1 (protein sequence) and 2 (DNA sequence). […] The gene coding for SEQ ID NO: 1 was cloned into the pMAL vector and transformed into TOP10 E. coli cells for protein expression with an N-terminal Maltose Binding Protein. […]
The strain was subsequently grown with success on 100 mM glufosinate-supplemented M63 minimal media; while the gene coding for a new GluR (glufosinate resistance) protein was cloned from that strain and referred to herein as GluRAP and set forth in SEQ ID NO:1 and 2. […] The resulting E. coli clone was analyzed for the ability to grow in the presence of glufosinate. […]

[2] = tested on: E. coli; assay: growth of E. coli expressing MBP fusions under various glufosinate concentrations after IPTG induction (FIG. 3); type: cell-based; details: compared with the other genes
Procedure: Genes coding for glufosinate-resistant proteins were cloned as MBP (Maltose Binding Protein) fusions and expressed in E. coli. These E. coli strains were grown. The ability of the strains to tolerate and continue to grow in the presence of glufosinate was measured under various glufosinate concentrations upon induction of gene expression by addition of IPTG into the media in which the strains were growing.

[3] = tested on: soy callus; assay: selection of transformed soy callus on medium containing glufosinate; type: cell-based, soybean; details: medium containing 25 uM glufosinate; construct pSV37; GUS stain confirmed
Procedure: Transgenic plants were selected by incubating callus on medium containing 25 uM glufosinate.
Transgenic plants were selected by incubating callus on medium containing 25 uM glufosinate. […] (FIG. 4) See above for construct pSV37 that carries APG00318 gene.

| Molecule | glufosinate concentration tolerated by control E. coli ([1]; control E. coli, minimum inhibitory concentration experiments) | concentration of glufosinate at which the E. coli clone was able to grow in liquid media ([1]; E. coli clone expressing the protein with N-terminal maltose binding protein (pMAL)) | tolerance level to glufosinate of E. coli cultures carrying the gene [2] | glufosinate resistance of transformed soy callus [3] |
| --- | --- | --- | --- | --- |
| CP(=O)(O)CCC(N)C(=O)O (stereo not drawn) [glufosinate] | ≤ 1 mM |  |  |  |
| B1 |  | 100 mM | higher tolerance level to glufosinate | Glufosinate resistance was observed |
| B2 |  |  | higher tolerance level to glufosinate |  |
| B3 |  |  | higher tolerance level to glufosinate |  |
